How the values were obtained:
[1] = SEC-HPLC aggregation analysis; type: physicochemical
Protocol: The antibody aggregation was analyzed by size-exclusion, high-performance liquid chromatography (SEC-HPLC) using an Agilent 1100. The mAb was diluted to 1 mg/mL in DPBS. The antibody (20 μL) was injected onto a TSKgel® SuperSW guard column (4.6 mm×3.5 cm, 4 μm pore size, Tosoh Bioscience), followed by a TSKgel® SuperSW3000 column (4.6 mm×30 cm, 4 μm pore size), eluted from the column with 0.1 M sodium phosphate containing 0.15 M NaCl and 0.05% NaN3, at pH 7.4, at a flow rate of 0.3 mL/min for 20 min. All data were analyzed using Agilent ChemStation software. Percent aggregation was calculated as [PAaggregate/PAtotal]*100, where PA=integrated peak area.
ADC was diluted to 1 mg/mL in DPBS. ADC (10 μL) was then injected onto an Advanced SEC 300A guard column (4.6 mm×3.5 cm, 2.7 μm pore size, Agilent), followed by a AdvancedBio 300A column (4.6 mm×30 cm, 2.7 μm pore size). ADC was eluted from the column with 0.1 M sodium phosphate containing 0.15 M NaCl and 5% IPA, pH 7.4 at a flow rate of 0.25 mL/min for 28 min. All data were analyzed using Agilent ChemStation software. Percent aggregation was calculated as [PAaggregate/PAtotal]*100, where PA=integrated peak area.

[2] = DAR analysis by LC-MS (UPLC/ESI-MS, reverse-phase LC-MS); settings: for DAR (LC-MS): reverse-phase LC-MS
Protocol: ADCs were deglycosylated using PNGase F (New England BioLabs). G7 buffer (10 μL) and PNGase F (2 μL) were added to the mAb (90 μL, 1 mg/mL in DPBS). The reaction was incubated in a Discover microwave (CEM) for 2 cycles: (1) microwave power 10 W, 37° C., 10 min, followed by a 5-min pause; (2) microwave power 2 W, 37° C., 10 min. A portion of the sample was reduced by adding DTT to a final concentration of 20 mM, followed by incubation at 60° C. for 3 min. Samples were then analyzed using a Waters Acquity Ultra Performance Liquid Chromatography (UPLC) and quadrupole time of flight (Q-Tof) Premier mass spectrometer. Samples (0.5-2 μg each) were injected onto a MassPrep™ micro desalting column at 65° C., eluted from the column with a 5 min equilibration in 95% of mobile phase A, a 10 min gradient (5-90% B), and a 10 min re-equilibration in 95% of mobile phase A, at 0.05 mL/min. Mobile phase A was 0.1% formic acid in water. Mobile phase B was 0.1% formic acid in acetonitrile. The Q-Tof mass spectrometer was run in positive ion, V-mode with detection in the range of 500-4000 m/z. The source parameters were as follows: capillary voltage, 2.25 kV (intact antibody)-2.50 kV (reduced antibody); sampling cone voltage, 65.0 V (intact antibody) or 50.0 V (reduced antibody); source temperature, 100° C.; desolvation temperature, 250° C.; desolvation gas flow, 550 L/hr. The protein peak was deconvoluted using the MassLynx® MaxEnt 1 function. Relative intensities of each unconjugated, singly-conjugated, and multiply-conjugated heavy and light chain masses were combined to calculate the overall DAR using the formula:
2[[ILC+1+2(ILC+2)+3(ILC+3)+ . . . n(ILC+n)]/ΣILCtot]+2[[IHC+1+2(IHC+2)+3(IHC+3)+ . . . n(IHC+n)]/ΣIHCtot]
where ILC+1 is mass intensity of light chain conjugated with one cytotoxin, ILC+2 is mass intensity of light chain conjugated with two cytotoxins, etc. IHC are the intensities from the corresponding conjugated heavy chains, and ΣILCtot and ΣIHCtot are the combined intensities of all unconjugated and conjugated light chains and heavy chains, respectively.
DAR was also analyzed using an LC-MS method with a Waters Alliance HPLC with SQD/PDA detection. Samples were injected onto a Proteomix RP-1000 column ([…], 1000A, 4.6 mm×15 cm, Sepax) at 65° C., and eluted with a 3 min equilibration in 25% B, a 27 min linear gradient from 25%-55% B, a 5 min hold at 55% B, a 1 min change to 90% B, a 5 min hold at 90% B, a 1 min change back to 25% B, and a 5 min reequilibration at 25% B. Mobile phase A was 0.1% TFA in water, and mobile phase B was 0.1% TFA in acetonitrile. The elute was then split (10:1) into PDA and SQD detectors. The SQD detector was set up as ES positive, capillary voltage at 3.2 kV, cone voltage at 40 V, extractor at 3 V, and RF lens at 0.2 V, source temperature at 150° C., and desolvation temperature at 250° C. Mass data was acquired at 200-2000 m/z for 40 min, continuum mode, scan time 1 second. Data was analyzed and deconvoluted offline using MassLynx and MaxEnt1. DAR was calculated using the formula:
2[[AUCLC+1+2(AUCLC+2)+3(AUCLC+3)+ . . . n(AUCLC+n)]/[…]]+2[[AUCHC+1+2(AUCHC+2)+3(AUCHC+3)+ . . . n(AUCHC+n)]/ΣAUCHCtot]
where AUCLC+1 is the area under the curve of the light chain peak conjugated with one cytotoxin, AUCLC+2 is the area under the curve of the light chain peak conjugated with two cytotoxins, etc. AUCHC is the area under the curve of the corresponding heavy chains, and ΣAUCLCtot and ΣAUCHCtot are the combined area under the curve of all unconjugated and conjugated light chains and heavy chains, respectively.

human mesothelin = human mesothelin (Homo sapiens, UniProt Q13421); test: ELISA, mesothelin; type: binding; settings: MORAb-009 and its ADCs; for EC50: read-out: Antigen Binding ELISA, EC50
Protocol: Recombinant human mesothelin was diluted to 1 μg/mL in coating buffer (50 mM carbonate-bicarbonate buffer, pH 9.6), and coated onto 96-well Maxisorp black plates (Thermo, Cat No. 43711, 100 μL/well) at 4° C., overnight. Coating solution was discarded and the plates were washed three times using 1×PBS with 0.05% Tween-20 (PBST) buffer. Plates were blocked in 300 μL blocking buffer (1% BSA in PBST) at room temperature for 2 hours on an orbital shaker. […] Blocking buffer was discarded and 100 μL/well of diluted antibody was added to the plates. Plates were incubated at room temperature for 2 hours on an orbital shaker. Antibody solution was discarded and plates were washed three times using PBST. 100 μL/well of goat-anti-human IgG (H+L)-HRP (1:10,000 dilution in blocking buffer) solution was added to the plates, and plates were incubated at room temperature for 1 hour on an orbital shaker. Secondary antibody solution was discarded and plates were washed three times using PBST. 100 μL/well of QuantaBlu fluorogenic peroxidase substrate working solution (Thermo, Cat No. 15169) was added to the plates, and plates were incubated at room temperature for 30 min. Fluorescence was read at excitation 325 nm/emission 420 nm using a SpectraMax M5 (Molecular Devices). Data was analyzed using SoftMaxPro 5.4.2 software with 4-parameter fitting.

A431 cells = test: Crystal Violet cytotoxicity assay (Example 4), A431 (parental); type: cell-based, human; settings: mean of replicate experiments, read-out: Cytotoxicity IC50 (nM), A431 (FR^neg, MSLN^neg)
Protocol: Test reagents were serial diluted 1:3 in 2 mL deep-well dilution plates, starting at 200 nM (10 dilutions total). […] Medium was then discarded. […] Plates were read at 570 nm. Data was analyzed using GraphPad Prism 6. […]
MAL-PEG2-Val-Cit-PAB-eribulin (ER-001159569) was conjugated to eight different anti-human mesothelin antibodies (Table 1). Binding affinities of the parental antibodies were determined by BIAcore analysis, as described above in section 1.6.1. Aggregation levels for all anti-human mesothelin ADCs were determined by SEC-HPLC and the DAR was analyzed using HIC-HPLC. In vitro potency was evaluated using a Crystal Violet cell-based cytotoxicity assay in A3 (A431 stabily transfected with human mesothelin (MSLN), MSLN^hi), OVCAR3 (human ovarian, MSLN^hi), HEC-251 (human endometroid, MSLN^med), H226 (human lung squamous cell mesothelioma, MSLN^lo), and A431 parental (MSLN^neg) cells.

IGROV1 cells = test: Crystal Violet cytotoxicity assay (Example 4), IGROV1; type: cell-based, human; settings: mean of replicate experiments, read-out: Cytotoxicity IC50 (nM), IGROV1 (FR^hi, MSLN^neg)
Protocol: (§1) Test reagents were serial diluted 1:3 in 2 mL deep-well dilution plates, starting at 200 nM (10 dilutions total). […] Medium was then discarded. […] Plates were read at 570 nm. Data was analyzed using GraphPad Prism 6.

NCI-H2110 cells = test: Crystal Violet cytotoxicity assay (Example 4), NCI-H2110; type: cell-based, human; settings: mean of replicate experiments, read-out: Cytotoxicity IC50 (nM), NCI-H2110 (FR^med, MSLN^med)
Protocol: as §1

[3] = tested on: LXFA-737 NSCLC patient-derived xenograft; test: NSCLC PDx model LXFA-737; type: in vivo, mouse; settings: for Tumor Volume / Tumor Growth Inhibition: 5 mg/kg single dose i.v.; for Tumor Growth Inhibition: vehicle = 100
Source text: Tumor implantation: NSCLC tumor fragments were obtained from LXFA-737 tumor xenografts serially passaged in nude mice. After removal from donor mice, tumors were cut into fragments (3-4 mm edge length) and placed in phosphate-buffered saline (PBS) containing 10% penicillin/streptomycin. Recipient animals were anesthetized by inhalation of isoflurane and received unilateral or bilateral tumor implants subcutaneously in the flank. Tumor xenografts were implanted with one or two tumors per mouse at a take rate <65%. In the case of a bilateral take, one of these tumors was explanted prior to randomization. Animals and tumor implants were monitored daily until solid tumor growth was detectable in a sufficient number of animals. At randomization, the volume of growing tumors was determined. […] Animals not used for experiments were euthanized.
Body weight was measured prior to dose on each dosing day, and two times per week during the study. At the end of the study, the terminal body weight was measured and recorded.

[4] = tested on: human BM-MSCs co-cultured with MKN-74 cells; test: 3D co-culture system (rStomach, zPredicta), MSC differentiation by flow cytometry; type: cell-based; settings: 7 days treatment, MORAb-202 10 nM, MORAb-003 10 nM, eribulin […] and 0.2 nM (Table 41)
Protocol: All mesenchymal stem cell (MSC)-containing 3D co-culture experiments were conducted in zPredicta, using organ-specific 3D extracellular matrix systems such as rStomach™. Bone marrow mesenchymal stem cells (BM-MSCs) in rStomach™ were co-cultured with the Nuc Red Light MKN-74 gastric cancer cell line in quadruplicate in 48-well format for 12 days. […] Prior to culture, BM-MSCs were evaluated for target antigen expression and for markers of MSC differentiation (Table 40) by flow cytometry.
Controls included untreated and vehicle-treated (PBS and DMSO) cultures. MSC differentiation was monitored by light microscopy. Once visible differentiation was observed, samples were harvested for staining and flow cytometry analysis.
Bone marrow mesenchymal stem cells (BM-MSCs) in rStomach™ (zPredicta) were co-cultured with the MKN-74 gastric cancer cell line for 12 days. […] Once visible MSC differentiation was observed by light microscopy, samples were harvested for staining and flow cytometry analysis.

| Compound | Aggregation (%) ([1]; MORAb-003 ADCs, SEC-HPLC) | DAR ([2]; MORAb-003 ADCs, DAR by LC-MS) | Antigen Binding ELISA, EC50 (human mesothelin) [mg/L] | EC50 (human mesothelin) [µM] | SEC-HPLC Analysis % Aggr. [1] [%] | SEC-HPLC Analysis % Frag. [1] [%] | SEC-HPLC Analysis % Monomer [1] [%] | IC50 (A431 cells) [nM] | DAR (LC-MS) [2] | IC50 (IGROV1 cells) [nM] | IC50 (NCI-H2110 cells) [nM] | Tumor Volume ([3]; Day 21, n = 6) [mm^3] | Tumor Growth Inhibition ([3]; Day 21, n = 6) | Tumor Volume ([3]; Day 32, n = 6) [mm^3] | Tumor Growth Inhibition ([3]; Day 32, n = 6) | anti-tumor activity, in words ([3]; 5 mg/kg single i.v. dose) | Percentage of live cells, Pericytes ([4]; PBS 14.6%) [%] | Percentage of live cells, Adipocytes ([4]; PBS […]) [%] | Percentage of live cells, MSCs ([4]; PBS […]) [%] |
| --- | --- | --- | --- | --- | --- | --- | --- | --- | --- | --- | --- | --- | --- | --- | --- | --- | --- | --- | --- |
| COc1cc2cc(c1Cl)N(C)C(=O)C[C@H](OC(=O)C(C)N(C)C(=O)CCSC1CC(=O)N(CC3CCC(C(=O)ON4C(=O)CCC4=O)CC3)C1=O)[C@@H]1O[C@H]1[C@H](C)[C@@H]1C[C@@](O)(NC(=O)O1)[C@H](OC)/C=C/C=C(\C)C2 (stereo partly drawn) [M-DM1] | 1.8 | 3.6 |  |  |  |  |  |  |  |  |  |  |  |  |  |  |  |  |  |
| MORAb009 |  |  | 0.0426 | 0.00028 | 0 | 0 | 100 |  |  |  |  |  |  |  |  |  |  |  |  |
| MORAb009-DBCO-PEG2 eribulin |  |  | 0.0233 | 0.00016 | 1.15 | 0 | 98.85 | > 100 | 3.07 | 75.7 | 85.7 |  |  |  |  |  |  |  |  |
| MORAb009-DBCO-PEG4 VCP eribulin |  |  | 0.0337 | 0.00022 | 0.22 | 0 | 99.78 | > 100 | 2.91 | 13 | 31.4 |  |  |  |  |  |  |  |  |
| MORAb009-DBCO-PEG4 eribulin |  |  | 0.0452 | 0.0003 | 1.12 | 0 | 98.88 | > 100 | 2.8 | 61.5 | 39.3 |  |  |  |  |  |  |  |  |
| MORAb-003: humanized anti-human folate receptor alpha antibody (USAN name: farletuzumab) |  |  |  |  |  |  |  |  |  |  |  | 860.7 | (85.7) % | 1572.1 | (100.7) % | did not demonstrate significant anti-tumor activity | 24.0 | 0.69 | 37.1 |

— patent US20230398228A1, “ERIBULIN-BASED ANTIBODY-DRUG CONJUGATES AND METHODS OF USE” (EISAI R&D MANAGEMENT CO., LTD., priority 2016, published 2023)
